According to patent US20110118131A1 (published 2011):

T1: Ep-CAM (UniProt P16422 24-265, limits assumed)
T1 construct: Antigen of the Biacore analysis of ING-1 variants
T1 sequence (looked up): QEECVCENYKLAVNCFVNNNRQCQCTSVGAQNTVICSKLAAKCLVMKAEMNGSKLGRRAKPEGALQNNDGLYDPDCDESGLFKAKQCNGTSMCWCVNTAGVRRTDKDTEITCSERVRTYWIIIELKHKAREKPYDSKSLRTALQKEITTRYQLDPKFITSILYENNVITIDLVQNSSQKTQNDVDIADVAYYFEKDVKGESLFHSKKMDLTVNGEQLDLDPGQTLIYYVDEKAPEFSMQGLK


Biological target: T1, Ep-CAM
Assay: Biacore, Fab periplasmic extract

Row | Binder | binding result | fold difference in affinity vs original [fold]
1 | ING-1 heavy chain K31N (Fab, V domains shown) VH: QIQLVQSGPELKKPGETVKISCKASGYTFTNYGMNWVKQAPGKGLKWMGWINTYTEEPTYGDDFKGRFAFSLETSASTANLQINNLKSEDTATYFCARFGSAVDYWGQGTSVTVSS VL: DIVMTQAAFSNPVTLGTSGSISCRSSKSLLHSNGITYLYWYLQKPGQSPQLLIYQMSNLASGVPDRFSSSGSGTDFTLRISRVEAEDVGVYYCAQNLELPRTFGGGTKLEMKR | no binding | –
2 | ING-1 heavy chain N52K (Fab, V domains shown) VH: QIQLVQSGPELKKPGETVKISCKASGYTFTKYGMNWVKQAPGKGLKWMGWIKTYTEEPTYGDDFKGRFAFSLETSASTANLQINNLKSEDTATYFCARFGSAVDYWGQGTSVTVSS VL: DIVMTQAAFSNPVTLGTSGSISCRSSKSLLHSNGITYLYWYLQKPGQSPQLLIYQMSNLASGVPDRFSSSGSGTDFTLRISRVEAEDVGVYYCAQNLELPRTFGGGTKLEMKR | no binding | –
3 | ING-1 heavy chain G100F (Fab, V domains shown) VH: QIQLVQSGPELKKPGETVKISCKASGYTFTKYGMNWVKQAPGKGLKWMGWINTYTEEPTYGDDFKGRFAFSLETSASTANLQINNLKSEDTATYFCARFFSAVDYWGQGTSVTVSS VL: DIVMTQAAFSNPVTLGTSGSISCRSSKSLLHSNGITYLYWYLQKPGQSPQLLIYQMSNLASGVPDRFSSSGSGTDFTLRISRVEAEDVGVYYCAQNLELPRTFGGGTKLEMKR | no binding | –
4 | ING-1 heavy chain N52H (Fab, V domains shown) VH: QIQLVQSGPELKKPGETVKISCKASGYTFTKYGMNWVKQAPGKGLKWMGWIHTYTEEPTYGDDFKGRFAFSLETSASTANLQINNLKSEDTATYFCARFGSAVDYWGQGTSVTVSS VL: DIVMTQAAFSNPVTLGTSGSISCRSSKSLLHSNGITYLYWYLQKPGQSPQLLIYQMSNLASGVPDRFSSSGSGTDFTLRISRVEAEDVGVYYCAQNLELPRTFGGGTKLEMKR | – | 0.02
5 | ING-1 heavy chain K31Y (Fab, V domains shown) VH: QIQLVQSGPELKKPGETVKISCKASGYTFTYYGMNWVKQAPGKGLKWMGWINTYTEEPTYGDDFKGRFAFSLETSASTANLQINNLKSEDTATYFCARFGSAVDYWGQGTSVTVSS VL: DIVMTQAAFSNPVTLGTSGSISCRSSKSLLHSNGITYLYWYLQKPGQSPQLLIYQMSNLASGVPDRFSSSGSGTDFTLRISRVEAEDVGVYYCAQNLELPRTFGGGTKLEMKR | – | 1
6 | ING-1 heavy chain G33R (Fab, V domains shown) VH: QIQLVQSGPELKKPGETVKISCKASGYTFTKYRMNWVKQAPGKGLKWMGWINTYTEEPTYGDDFKGRFAFSLETSASTANLQINNLKSEDTATYFCARFGSAVDYWGQGTSVTVSS VL: DIVMTQAAFSNPVTLGTSGSISCRSSKSLLHSNGITYLYWYLQKPGQSPQLLIYQMSNLASGVPDRFSSSGSGTDFTLRISRVEAEDVGVYYCAQNLELPRTFGGGTKLEMKR | – | 0.03
7 | ING-1 heavy chain G100Q (Fab, V domains shown) VH: QIQLVQSGPELKKPGETVKISCKASGYTFTKYGMNWVKQAPGKGLKWMGWINTYTEEPTYGDDFKGRFAFSLETSASTANLQINNLKSEDTATYFCARFQSAVDYWGQGTSVTVSS VL: DIVMTQAAFSNPVTLGTSGSISCRSSKSLLHSNGITYLYWYLQKPGQSPQLLIYQMSNLASGVPDRFSSSGSGTDFTLRISRVEAEDVGVYYCAQNLELPRTFGGGTKLEMKR | no binding | –
8 | ING-1 heavy chain G100W (Fab, V domains shown) VH: QIQLVQSGPELKKPGETVKISCKASGYTFTKYGMNWVKQAPGKGLKWMGWINTYTEEPTYGDDFKGRFAFSLETSASTANLQINNLKSEDTATYFCARFWSAVDYWGQGTSVTVSS VL: DIVMTQAAFSNPVTLGTSGSISCRSSKSLLHSNGITYLYWYLQKPGQSPQLLIYQMSNLASGVPDRFSSSGSGTDFTLRISRVEAEDVGVYYCAQNLELPRTFGGGTKLEMKR | no binding | –
9 | ING-1 heavy chain G33N (Fab, V domains shown) VH: QIQLVQSGPELKKPGETVKISCKASGYTFTKYNMNWVKQAPGKGLKWMGWINTYTEEPTYGDDFKGRFAFSLETSASTANLQINNLKSEDTATYFCARFGSAVDYWGQGTSVTVSS VL: DIVMTQAAFSNPVTLGTSGSISCRSSKSLLHSNGITYLYWYLQKPGQSPQLLIYQMSNLASGVPDRFSSSGSGTDFTLRISRVEAEDVGVYYCAQNLELPRTFGGGTKLEMKR | no binding | –
10 | ING-1 heavy chain G100H (Fab, V domains shown) VH: QIQLVQSGPELKKPGETVKISCKASGYTFTKYGMNWVKQAPGKGLKWMGWINTYTEEPTYGDDFKGRFAFSLETSASTANLQINNLKSEDTATYFCARFHSAVDYWGQGTSVTVSS VL: DIVMTQAAFSNPVTLGTSGSISCRSSKSLLHSNGITYLYWYLQKPGQSPQLLIYQMSNLASGVPDRFSSSGSGTDFTLRISRVEAEDVGVYYCAQNLELPRTFGGGTKLEMKR | no binding | –
11 | ING-1 heavy chain G33Q (Fab, V domains shown) VH: QIQLVQSGPELKKPGETVKISCKASGYTFTKYQMNWVKQAPGKGLKWMGWINTYTEEPTYGDDFKGRFAFSLETSASTANLQINNLKSEDTATYFCARFGSAVDYWGQGTSVTVSS VL: DIVMTQAAFSNPVTLGTSGSISCRSSKSLLHSNGITYLYWYLQKPGQSPQLLIYQMSNLASGVPDRFSSSGSGTDFTLRISRVEAEDVGVYYCAQNLELPRTFGGGTKLEMKR | – | 0.06
12 | ING-1 heavy chain G100Y (Fab, V domains shown) VH: QIQLVQSGPELKKPGETVKISCKASGYTFTKYGMNWVKQAPGKGLKWMGWINTYTEEPTYGDDFKGRFAFSLETSASTANLQINNLKSEDTATYFCARFYSAVDYWGQGTSVTVSS VL: DIVMTQAAFSNPVTLGTSGSISCRSSKSLLHSNGITYLYWYLQKPGQSPQLLIYQMSNLASGVPDRFSSSGSGTDFTLRISRVEAEDVGVYYCAQNLELPRTFGGGTKLEMKR | no binding | –

Now from value to binder:

Row | binding result | fold difference in affinity vs original [fold] | Binder
13 | no binding | – | ING-1 heavy chain G33K (Fab, V domains shown) VH: QIQLVQSGPELKKPGETVKISCKASGYTFTKYKMNWVKQAPGKGLKWMGWINTYTEEPTYGDDFKGRFAFSLETSASTANLQINNLKSEDTATYFCARFGSAVDYWGQGTSVTVSS VL: DIVMTQAAFSNPVTLGTSGSISCRSSKSLLHSNGITYLYWYLQKPGQSPQLLIYQMSNLASGVPDRFSSSGSGTDFTLRISRVEAEDVGVYYCAQNLELPRTFGGGTKLEMKR
14 | no binding | – | ING-1 heavy chain G33W (Fab, V domains shown) VH: QIQLVQSGPELKKPGETVKISCKASGYTFTKYWMNWVKQAPGKGLKWMGWINTYTEEPTYGDDFKGRFAFSLETSASTANLQINNLKSEDTATYFCARFGSAVDYWGQGTSVTVSS VL: DIVMTQAAFSNPVTLGTSGSISCRSSKSLLHSNGITYLYWYLQKPGQSPQLLIYQMSNLASGVPDRFSSSGSGTDFTLRISRVEAEDVGVYYCAQNLELPRTFGGGTKLEMKR
15 | – | 0.02 | ING-1 heavy chain N52D (Fab, V domains shown) VH: QIQLVQSGPELKKPGETVKISCKASGYTFTKYGMNWVKQAPGKGLKWMGWIDTYTEEPTYGDDFKGRFAFSLETSASTANLQINNLKSEDTATYFCARFGSAVDYWGQGTSVTVSS VL: DIVMTQAAFSNPVTLGTSGSISCRSSKSLLHSNGITYLYWYLQKPGQSPQLLIYQMSNLASGVPDRFSSSGSGTDFTLRISRVEAEDVGVYYCAQNLELPRTFGGGTKLEMKR
16 | no binding | – | ING-1 heavy chain G100D (Fab, V domains shown) VH: QIQLVQSGPELKKPGETVKISCKASGYTFTKYGMNWVKQAPGKGLKWMGWINTYTEEPTYGDDFKGRFAFSLETSASTANLQINNLKSEDTATYFCARFDSAVDYWGQGTSVTVSS VL: DIVMTQAAFSNPVTLGTSGSISCRSSKSLLHSNGITYLYWYLQKPGQSPQLLIYQMSNLASGVPDRFSSSGSGTDFTLRISRVEAEDVGVYYCAQNLELPRTFGGGTKLEMKR
17 | no binding | – | ING-1 heavy chain N52R (Fab, V domains shown) VH: QIQLVQSGPELKKPGETVKISCKASGYTFTKYGMNWVKQAPGKGLKWMGWIRTYTEEPTYGDDFKGRFAFSLETSASTANLQINNLKSEDTATYFCARFGSAVDYWGQGTSVTVSS VL: DIVMTQAAFSNPVTLGTSGSISCRSSKSLLHSNGITYLYWYLQKPGQSPQLLIYQMSNLASGVPDRFSSSGSGTDFTLRISRVEAEDVGVYYCAQNLELPRTFGGGTKLEMKR
18 | no binding | – | ING-1 heavy chain N52F (Fab, V domains shown) VH: QIQLVQSGPELKKPGETVKISCKASGYTFTKYGMNWVKQAPGKGLKWMGWIFTYTEEPTYGDDFKGRFAFSLETSASTANLQINNLKSEDTATYFCARFGSAVDYWGQGTSVTVSS VL: DIVMTQAAFSNPVTLGTSGSISCRSSKSLLHSNGITYLYWYLQKPGQSPQLLIYQMSNLASGVPDRFSSSGSGTDFTLRISRVEAEDVGVYYCAQNLELPRTFGGGTKLEMKR
19 | no binding | – | ING-1 heavy chain G100E (Fab, V domains shown) VH: QIQLVQSGPELKKPGETVKISCKASGYTFTKYGMNWVKQAPGKGLKWMGWINTYTEEPTYGDDFKGRFAFSLETSASTANLQINNLKSEDTATYFCARFESAVDYWGQGTSVTVSS VL: DIVMTQAAFSNPVTLGTSGSISCRSSKSLLHSNGITYLYWYLQKPGQSPQLLIYQMSNLASGVPDRFSSSGSGTDFTLRISRVEAEDVGVYYCAQNLELPRTFGGGTKLEMKR
20 | no binding | – | ING-1 heavy chain N52Q (Fab, V domains shown) VH: QIQLVQSGPELKKPGETVKISCKASGYTFTKYGMNWVKQAPGKGLKWMGWIQTYTEEPTYGDDFKGRFAFSLETSASTANLQINNLKSEDTATYFCARFGSAVDYWGQGTSVTVSS VL: DIVMTQAAFSNPVTLGTSGSISCRSSKSLLHSNGITYLYWYLQKPGQSPQLLIYQMSNLASGVPDRFSSSGSGTDFTLRISRVEAEDVGVYYCAQNLELPRTFGGGTKLEMKR
21 | no binding | – | ING-1 heavy chain N52E (Fab, V domains shown) VH: QIQLVQSGPELKKPGETVKISCKASGYTFTKYGMNWVKQAPGKGLKWMGWIETYTEEPTYGDDFKGRFAFSLETSASTANLQINNLKSEDTATYFCARFGSAVDYWGQGTSVTVSS VL: DIVMTQAAFSNPVTLGTSGSISCRSSKSLLHSNGITYLYWYLQKPGQSPQLLIYQMSNLASGVPDRFSSSGSGTDFTLRISRVEAEDVGVYYCAQNLELPRTFGGGTKLEMKR
